Kd data for 13 molecules are collected here from paper PMC10786891, “Massively parallel profiling of RNA-targeting CRISPR-Cas13d”.

As a reminder, the Kd is a measure of binding affinity in units of concentration. A lower Kd goes with higher affinity.

T1: EsCas13d, nuclease-dead (Eubacterium siraeum, UniProt B0MS50, R295A;H300A;R849A;H854A)
T1 sequence: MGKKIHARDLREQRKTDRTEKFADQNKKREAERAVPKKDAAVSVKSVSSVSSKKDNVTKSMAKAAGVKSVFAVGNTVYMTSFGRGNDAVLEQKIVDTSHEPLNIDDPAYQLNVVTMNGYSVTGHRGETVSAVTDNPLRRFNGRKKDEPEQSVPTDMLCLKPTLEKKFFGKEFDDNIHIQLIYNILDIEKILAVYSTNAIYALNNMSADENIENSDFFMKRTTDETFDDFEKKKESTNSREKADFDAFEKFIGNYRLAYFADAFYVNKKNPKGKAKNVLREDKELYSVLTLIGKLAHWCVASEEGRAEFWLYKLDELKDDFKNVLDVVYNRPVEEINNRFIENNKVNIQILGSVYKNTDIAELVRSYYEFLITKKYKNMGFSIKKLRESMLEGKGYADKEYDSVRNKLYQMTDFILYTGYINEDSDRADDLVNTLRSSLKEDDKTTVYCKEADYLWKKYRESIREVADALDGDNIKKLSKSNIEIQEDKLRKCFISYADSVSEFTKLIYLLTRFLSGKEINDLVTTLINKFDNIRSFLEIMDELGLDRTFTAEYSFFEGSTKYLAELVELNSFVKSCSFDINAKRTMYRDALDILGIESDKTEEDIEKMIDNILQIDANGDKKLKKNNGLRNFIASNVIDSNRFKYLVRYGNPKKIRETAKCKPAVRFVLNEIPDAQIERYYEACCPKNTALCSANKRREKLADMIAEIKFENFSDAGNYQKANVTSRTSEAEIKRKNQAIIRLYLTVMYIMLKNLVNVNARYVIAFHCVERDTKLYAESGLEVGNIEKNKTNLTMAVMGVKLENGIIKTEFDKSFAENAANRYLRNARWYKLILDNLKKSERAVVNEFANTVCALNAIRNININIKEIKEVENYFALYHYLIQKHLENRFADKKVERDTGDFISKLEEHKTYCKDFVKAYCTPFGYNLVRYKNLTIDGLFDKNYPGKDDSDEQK

B1: target 2 MT 5'PFS AGG 3'PFS ACU (mixed)
RNA 1: CACCCGUGCAAAAUUGCAGGGGUCUAAAACCUUCUCCAAAUUGUUUCAUCCU
RNA 2: GGGAAUGGAUCCACAUCUACGAAUUCAGGAGGAUGAAACAAUUUGGAGAAGACUAGAUCGGAAGAGCACACGU
B2: target 2 MT 5'PFS UCU 3'PFS CCG (mixed)
RNA 1: CACCCGUGCAAAAUUGCAGGGGUCUAAAACCUUCUCCAAAUUGUUUCAUCCU
RNA 2: GGGAAUGGAUCCACAUCUACGAAUUCUCUAGGAUGAAACAAUUUGGAGAAGCCGAGAUCGGAAGAGCACACGU
B3: target 2 MT 5'PFS GUG 3'PFS UGC (mixed)
RNA 1: CACCCGUGCAAAAUUGCAGGGGUCUAAAACCUUCUCCAAAUUGUUUCAUCCU
RNA 2: GGGAAUGGAUCCACAUCUACGAAUUCGUGAGGAUGAAACAAUUUGGAGAAGUGCAGAUCGGAAGAGCACACGU
B4: target 2 MT 5'PFS AGG 3'PFS ACC (mixed)
RNA 1: CACCCGUGCAAAAUUGCAGGGGUCUAAAACCUUCUCCAAAUUGUUUCAUCCU
RNA 2: GGGAAUGGAUCCACAUCUACGAAUUCAGGAGGAUGAAACAAUUUGGAGAAGACCAGAUCGGAAGAGCACACGU
B5: target 2 MT 5'PFS GAA 3'PFS UGU (mixed)
RNA 1: CACCCGUGCAAAAUUGCAGGGGUCUAAAACCUUCUCCAAAUUGUUUCAUCCU
RNA 2: GGGAAUGGAUCCACAUCUACGAAUUCGAAAGGAUGAAACAAUUUGGAGAAGUGUAGAUCGGAAGAGCACACGU
B6: target 2 MT 5'PFS AAU 3'PFS AUU (mixed)
RNA 1: CACCCGUGCAAAAUUGCAGGGGUCUAAAACCUUCUCCAAAUUGUUUCAUCCU
RNA 2: GGGAAUGGAUCCACAUCUACGAAUUCAAUAGGAUGAAACAAUUUGGAGAAGAUUAGAUCGGAAGAGCACACGU
B7: target 2 MT 5'PFS AGA 3'PFS UUC (mixed)
RNA 1: CACCCGUGCAAAAUUGCAGGGGUCUAAAACCUUCUCCAAAUUGUUUCAUCCU
RNA 2: GGGAAUGGAUCCACAUCUACGAAUUCAGAAGGAUGAAACAAUUUGGAGAAGUUCAGAUCGGAAGAGCACACGU
B8: target 2 MT 5'PFS GAA 3'PFS UGC (mixed)
RNA 1: CACCCGUGCAAAAUUGCAGGGGUCUAAAACCUUCUCCAAAUUGUUUCAUCCU
RNA 2: GGGAAUGGAUCCACAUCUACGAAUUCGAAAGGAUGAAACAAUUUGGAGAAGUGCAGAUCGGAAGAGCACACGU
B9: target 2 MT 5'PFS CGC 3'PFS CUU (mixed)
RNA 1: CACCCGUGCAAAAUUGCAGGGGUCUAAAACCUUCUCCAAAUUGUUUCAUCCU
RNA 2: GGGAAUGGAUCCACAUCUACGAAUUCCGCAGGAUGAAACAAUUUGGAGAAGCUUAGAUCGGAAGAGCACACGU
B10: target 2 MT 5'PFS UUC 3'PFS UUC (mixed)
RNA 1: CACCCGUGCAAAAUUGCAGGGGUCUAAAACCUUCUCCAAAUUGUUUCAUCCU
RNA 2: GGGAAUGGAUCCACAUCUACGAAUUCUUCAGGAUGAAACAAUUUGGAGAAGUUCAGAUCGGAAGAGCACACGU
B11: target 2 MT 5'PFS AAU 3'PFS AUC (mixed)
RNA 1: CACCCGUGCAAAAUUGCAGGGGUCUAAAACCUUCUCCAAAUUGUUUCAUCCU
RNA 2: GGGAAUGGAUCCACAUCUACGAAUUCAAUAGGAUGAAACAAUUUGGAGAAGAUCAGAUCGGAAGAGCACACGU
B12: target 2 MT 5'PFS AAU 3'PFS AUA (mixed)
RNA 1: CACCCGUGCAAAAUUGCAGGGGUCUAAAACCUUCUCCAAAUUGUUUCAUCCU
RNA 2: GGGAAUGGAUCCACAUCUACGAAUUCAAUAGGAUGAAACAAUUUGGAGAAGAUAAGAUCGGAAGAGCACACGU
B13: target 1 A1U,A16U (mixed)
RNA 1: CACCCGUGCAAAAAUGCAGGGGUCUAAAACUGAGCGGAUAACCUCUCUAUGG
RNA 2: GGGAAUGGAUCCACAUCUACGAAUUCGUACCAUAGUGAGGUUAUCCGCUCUCCGAGAUCGGAAGAGCACACGU

In the data set the target is T1, EsCas13d, nuclease-dead. Put plainly: crRNA (strand 1, pre-loaded); Mg2+; 40 mM Tris-HCl pH 7.5, 150 mM NaCl, 6 mM MgCl2, 1 mM DTT, 0.1% Tween-20, 0.2 mg/ml BSA; 25 C; 10 min per concentration, then washed. The following applies: tags: His6-TwinStrep-SUMO cleaved; N-terminal SNAP kept (SNAP-Surface 488); label: 3' end held by stalled T7 RNA polymerase.
B1: binding was put at a Kd of 8.1 ± 1.8 nM. The molecule B2 came in with an equilibrium dissociation constant (Kd) of 17.4 ± 3 nM.

The molecule B3 gave an equilibrium dissociation constant (Kd) of 17.1 ± 2.5 nM.

In the case of B4, binding was put at a Kd of 15 ± 6 nM. Under B5 stands 18 ± 2.7 nM. Under B6 stands 5.3 ± 0.6 nM. B7 showed a Kd of 18 ± 5 nM. B8 had a Kd of 13.2 ± 2.6 nM. B9 gave a Kd of 14 ± 4 nM. B10 displayed a dissociation constant Kd of 31 ± 8 nM. In the case of B11 it was 6.3 ± 0.7 nM. Consider B12, for which binding was characterised by a dissociation constant (Kd) of 4.5 ± 0.9 nM. In the case of B13, the Kd stood at 70 ± 13 nM.
